≈ marks a conversion by molar mass, not a printed value.
Legend:
[1] = system: all three bacteria tested; assay: Antimicrobial testing, statement for all three bacteria tested; assay type: cell-based
Procedure: (§1) All three different heat incubated GDA samples were tested as antimicrobial agents with several different industrially relevant bacteria. The General Aerobic Bacteria isolated and used for this testing were identified as Pseudomonas aeruginosa and Enterobacter aggolomerans. Wild strain Sulfate Reducing Bacteria and Acid Producing Bacteria isolated from the produced fluids was also used. They were placed in a microtiter plate, where a high throughput test can be performed to determine MIC (minimum inhibitor concentration). Samples were tested at the following doses (1000, 500, 250, 125, 62.5, 31.2, 15.6, 7.8, 3.9, and 1.95ppm) and concentration was calculated based on the initial GDA concentration (15 w/v %).
(§2) The antimicrobial testing results shown in FIG. 49 summarizes the MIC of each sample for different bacteria.

[2] = system: APB (Acid Producing Bacteria); assay: Microtiter MIC study, acid producing bacteria; assay type: cell-based, Acid Producing Bacteria isolated from the produced fluids; conditions: 24 hours of incubation; concentration based on initial GDA concentration
Procedure: as §1, §2

[3] = system: General Wild Strain Bacteria; assay: Microtiter MIC study, general wild strain bacteria; assay type: cell-based, Pseudomonas aeruginosa and Enterobacter aggolomerans; conditions: 24 hours of incubation; concentration based on initial GDA concentration
Procedure: as §1, §2

[4] = Glucarate dehydratase reaction on glucarate monitored via LCMS; assay type: biochemical; conditions: pH 7.5
Procedure: (§3) A 100 μL volume was prepared containing 0.01% w/v Escherichia coli glucarate dehydratase (GlucD), 10 mM substrate (glucarate, gluconate, or glucuronate), 50 mM potassium phosphate, pH 7.5, 5 mM MgSO4, and 100 mM NaCl. The reaction was allowed to proceed for 24 hours and consumption of glucaric acid was monitored via LCMS at 0, 5mins, 20 mins, 1 hr, 2 hrs, and 24 hours. Full conversion of glucarate was observed within 20 minutes. […] The reaction is schematized in FIG. 36 and the results are graphed in Figure
To determine optimal enzyme loading, a 100 μL volume was prepared containing 0.001, 0.002, 0.005, or 0.01% w/v glucarate dehydratase (GlucD), 10% w/v glucarate, 50 mM potassium phosphate, pH 7.5, 5 mM MgSO4, and 100 mM NaCl. The reaction was allowed to proceed for 74 hours and formation of 4-deoxy-5-keoglucarate and consumption of glucarate was monitored via reverse phase LCMS. […] The reaction is schematized in FIG. 36 and the results are graphed in FIG. 40.

[5] = Glucarate dehydratase reaction with gluconate or glucuronate as substrate; assay type: biochemical; conditions: 0.01% w/v GlucD, 10 mM substrate, pH 7.5, 24 hours
Procedure: as §3

[6] = Specific activity of pyranose oxidase (POX) enzymes; assay type: biochemical; conditions: Table 4; unit = 1 umol of substrate consumed min^−1
Description: POX is a flavin-dependent enzyme found in lignocellulose-degrading fungi that oxidizes glucose to 2-ketoglucose concomitantly with hydrogen peroxide formation. Recombinant Trametes hirsuita POX is currently used in the food industry for baking, providing some evidence that the enzyme can be produced at low cost. A unit is defined as 1 umol of substrate consumed min^−1. Based on an in-house empirical evaluation, the Irpex lacteus, Trametes multicolor, and Phanerochaete chrysosporium POXs have sufficient starting activity. This is presented graphically in FIG. 32 and Table 4.

[7] = Table 4; previously characterized POX enzymes; cited from earlier work

Molecule: Oc1ccc(O)c(O)c1O (single isomer, unassigned) [1,2,3,4-tetrahydroxybenzene]
- antimicrobial activity (in words) [1]: good antimicrobial activity

Molecule: O=CCCCC=O [Glutaraldehyde - 50%, Glutaraldehyde]
- MIC [2]: 500 mg/L (≈ 4.99 mM)
- MIC [3]: 1000 mg/L (≈ 9.99 mM)

Molecule: GlucD: Escherichia coli glucarate dehydratase
- time to full conversion of glucarate ([4]; 0.005% enzyme, 10% w/v glucarate): ≤ 24 h
- time to full conversion of glucarate ([4]; 0.01% w/v GlucD, 10 mM glucarate): ≤ 0.333 h
- reaction with gluconic or glucuronic acid as substrate [5]: No reaction was observed

Molecule: Irpex lacteus: POX enzyme of Irpex lacteus
- Specific Activity (in-house evaluation) [6]: 6.0 (in-house U mg^−1
- Specific Activity (previously characterized) [7]: evaluation), 86 U mg^−1

Molecule: Trametes multicolor: POX enzyme of Trametes multicolor
- Specific Activity (in-house evaluation) [6]: 6.8 (in-house U mg^−1

B1: Lyophyllum shimeji: POX enzyme of Lyophyllum shimeji (protein, UniProt Q75ZP8 1-618, looked up)
Pyranose 2-oxidase: MSLSTEQMLRDYPRSMQINGQIPKNAIHETYGNDGVDVFIAGSGPIGATYAKLCVEAGLRVVMVEIGAADSFYAVNAEEGTAVPYVPGYHKKNEIEFQKDIDRFVNVIKGALQQVSVPVRNQNVPTLDPGAWSAPPGSSAISNGKNPHQREFENLSAEAVTRGVGGMSTHWTCSTPRIHPPMESLPGIGRPKLSNDPAEDDKEWNELYSEAERLIGTSTKEFDESIRHTLVLRSLQDAYKDRQRIFRPLPLACHRLKNAPEYVEWHSAENLFHSIYNDDKQKKLFTLLTNHRCTRLALTGGYEKKIGAAEVRNLLATRNPSSQLDSYIMAKVYVLASGAIGNPQILYNSGFSGLQVTPRNDSLIPNLGRYITEQPMAFCQIVLRQEFVDSVRDDPYGLPWWKEAVAQHIAKNPTDALPIPFRDPEPQVTTPFTEEHPWHTQIHRDAFSYGAVGPEVDSRVIVDLRWFGATDPEANNLLVFQNDVQDGYSMPQPTFRYRPSTASNVRARKMMADMCEVASNLGGYLPTSPPQFMDPGLALHLAGTTRIGFDKATTVADNNSLVWDFANLYVAGNGTIRTGFGENPTLTSMCHAIKSARSIINTLKGGTDGKNTGEHRNL
- Specific Activity (previously characterized) [7]: 1.92 U mg^−1

— patent US20240368642A1, “COMPOSITIONS AND METHODS FOR PRODUCTION OF VALUE-ADDED CHEMICALS” (Solugen, Inc., priority 2021, published 2024)
